This assay has as its target T1, hCD137L-mFc (human CD137L extracellular domain and mouse IgG-Fc fusion protein) (human, UniProt P41273 50-254).
T1 construct: human CD137 ligand (4-1BBL), extracellular domain; a silent g to c change at base 405 destroys an AgeI site without any amino acid changed; also called hL; hL-mFc; source: COS-7, transfected, purified (rProtein A Sepharose)
The experiment in a line: ELISA; purified hCD137L-mFc coated at 1 µg/ml; expression supernatants of human or mouse CD137-hFc fragments added; goat anti-human IgG-HRP; positive if P/N>2.1. The settings on record: one partner purified. Background: ELISA stands for enzyme-linked immunosorbent assay.

T1 sequence (P41273 50-254): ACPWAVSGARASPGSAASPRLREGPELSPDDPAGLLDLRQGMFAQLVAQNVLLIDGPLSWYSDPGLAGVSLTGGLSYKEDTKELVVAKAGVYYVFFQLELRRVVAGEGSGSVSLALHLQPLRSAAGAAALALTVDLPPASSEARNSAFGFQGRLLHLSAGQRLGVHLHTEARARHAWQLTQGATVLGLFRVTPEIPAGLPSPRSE

B1: mouse CD137 extracellular domain with hFc tail (mE-hFc) (Fc fusion, UniProt P20334 24-185, looked up)
chain: VQNSCDNCQPGTFCRKYNPVCKSCPPSTFSSIGGQPNCNICRVCAGYFRFKKFCSSTHNAECECIEGFHCLGPQCTRCEKDCRPGQELTKQGCKTCSLGTFNDQNGTGVCRPWTNCSLDGRSVLKTGTTEKDVVCGPPVVSFSPSTTISVTPEGGPGGHSLQ
notes: signal peptide in the construct; mouse CD137 (4-1BB), entire extracellular region with its own leader (1-23 aa), CRDI-IV and the hinge-like region (STP), residues 1-185; Runs as a dimer on SDS-PAGE without 2-ME; also called mE-Fc; mCD137-hFc; source: COS-7, transfected (DEAE dextran); expression supernatant, and purified (rProtein A Sepharose); not shown: Fc (human IgG1 hinge-CH2-CH3), …
As for B1, the “binding relative to that of human CD137” value is around 30%.

(Values after article PMC3897701, “Human and Mouse CD137 Have Predominantly Different Binding CRDs to Their Respective Ligands” (PLoS ONE, 2014).)
